Numbering of substitutions follows the chain as printed. Each block holds one binder with its values, some of them ahead of it.
Columns and labels:
[1] = molecular target: Human IL2Rγ extracellular domain expressed with a C-terminal mouse IgG2a Fc tag (human); test: SPR Biacore 4000, anti-hFc-captured mAb, 37 C
[2] = molecular target: Human IL2Rγ extracellular domain expressed with a C-terminal mouse IgG2a Fc tag (human); test: SPR Biacore 4000, anti-hFc-captured mAb, 25 C
[3] = molecular target: human IL2Rγ (endogenously expressed on cells) (human) (UniProt P31785); test: cell-based or functional assay
Chain of human IL2Rγ (endogenously expressed on cells) (human) (P31785 23-369): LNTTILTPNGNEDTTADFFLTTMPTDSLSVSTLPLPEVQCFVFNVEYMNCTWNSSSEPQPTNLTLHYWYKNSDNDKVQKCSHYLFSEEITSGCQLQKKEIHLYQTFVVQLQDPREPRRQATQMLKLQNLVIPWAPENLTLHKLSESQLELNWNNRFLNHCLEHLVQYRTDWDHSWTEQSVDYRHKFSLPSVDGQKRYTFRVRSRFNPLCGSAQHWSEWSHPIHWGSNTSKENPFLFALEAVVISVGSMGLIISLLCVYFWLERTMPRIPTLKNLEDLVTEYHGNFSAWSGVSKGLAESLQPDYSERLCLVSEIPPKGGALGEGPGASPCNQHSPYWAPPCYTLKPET

Chain of Human IL2Rγ extracellular domain expressed with a C-terminal mouse IgG2a Fc tag (human) (chain, as listed by the source limits assumed): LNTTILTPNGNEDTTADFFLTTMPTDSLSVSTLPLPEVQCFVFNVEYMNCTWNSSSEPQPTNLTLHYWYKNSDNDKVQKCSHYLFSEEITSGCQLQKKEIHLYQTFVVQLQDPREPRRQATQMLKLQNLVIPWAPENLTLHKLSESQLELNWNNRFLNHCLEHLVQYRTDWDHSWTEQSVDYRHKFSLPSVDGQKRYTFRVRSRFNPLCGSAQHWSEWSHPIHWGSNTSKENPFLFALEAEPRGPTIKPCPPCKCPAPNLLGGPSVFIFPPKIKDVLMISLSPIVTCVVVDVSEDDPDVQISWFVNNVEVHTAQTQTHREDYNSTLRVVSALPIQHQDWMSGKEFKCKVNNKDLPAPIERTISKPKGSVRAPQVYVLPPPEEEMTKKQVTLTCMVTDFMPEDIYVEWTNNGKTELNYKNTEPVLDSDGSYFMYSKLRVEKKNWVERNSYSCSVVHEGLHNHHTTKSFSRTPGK

50 nM Ag Bound [1]: 2 RU
50 nM Ag Bound [2]: 1 RU
B1: H4H12899P (antibody, human IgG4 S228P, kappa, V domains shown)
VH: QVQLVESGGDLVKPGGSLRLSCATSGFTFSDFYMTWIRQAPGKGLEWISYISNSGSIVKYADSVKGRFTISRDNAKNSLYLQMNSLRAEDTAIYYCARFYGDRWGQGTLVTVSS
VL: DIQLTQSPSFLSASVGDRVTITCWASQGISTFLAWYQQKPGKAPKLLIYAASTLQSGVPSRFSGSGSGTDFTLTISSLQPEDFATYHCQQLNNYPWTFGQGTKVEIKR

50 nM Ag Bound [1]: 4 RU
50 nM Ag Bound [2]: 4 RU
B2: H4H12900P (antibody, human IgG4 S228P, kappa, V domains shown)
VH: QVQLVESGGGLVKPGGSLRLSCEASGFTFNDFYMTWIRQAPGKGLEWIAYISKSGDKMRYADSVKGRFSTSRDNAKNSLSLQMNSLRAEDTAVYYCARFYGDIWGQGTLVTVSS
VL: B1 VL with G28D, T31S, A34V, K45N, T53A, D70E, T85S, H87Y, Q89E

EC50; IL-7 dose response; NK92/hIL7R/STAT3-luc [3]: 0.039 nM
B3: human IL-7 (ligand, UniProt P13232 26-177, looked up)
chain: DCDIEGKDGKQYESVLMVSIDQLLDSMKEIGSNCLNNEFNFFKRHICDANKEGMFLFRAARKLRQFLKMNSTGDFDLHLLKVSEGTTILLNCTGQVKGRKPAALGEAQPTKSLEENKSLKEQKKLNDLCFLKRLLQEIKTCWNKILMGTKEH
